Results reported in article PMC5492865.

Target: papain (UniProt P00784)
UniProt P00784, sequence (P00784 134-345): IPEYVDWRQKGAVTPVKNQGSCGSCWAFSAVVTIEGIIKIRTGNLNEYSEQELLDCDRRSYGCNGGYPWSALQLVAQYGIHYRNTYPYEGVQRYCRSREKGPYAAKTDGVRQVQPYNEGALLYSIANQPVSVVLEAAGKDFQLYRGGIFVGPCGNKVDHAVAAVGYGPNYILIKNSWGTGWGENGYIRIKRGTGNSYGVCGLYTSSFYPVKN

## salivary tick cystatin OmC2, recombinant, from insect Sf9 cells, with C-terminal oligo His-tag (non-labeled) (natural protein)
  active site titration of 10 nM papain with cystatin OmC2 (substrate 10 μM Z-Phe-Arg-AMC, 0.1 M phosphate buffer pH 6.0): molar ratio at which dF/dt = 0 (text: the inhibitor was 88% active): 1.16 molar ratio
